In experiment [1] the target is wild-type human GP130 on HEK293.STAT3.Luc.GP130 reporter cells (human) (UniProt P40189). The experiment is described as follows: cell-based or functional assay.
For experiment [2], the target named is extracellular domain of human LEPR, GPI-anchored, on HEK293/hLEPR-GPI cells (human) (UniProt P48357). Description: FACS, 200 nM antibody on HEK293/hLEPR-GPI cells, 1 µM Leptin.
Experiment [3] concerns the target mutant human LEPR (Y1141F) on HEK293.STAT3.Luc.GP130.hLEPR (Y1141F) cells (human) (UniProt P48357). Description: cell-based or functional assay.
Experiment [4] has as its target full length human GP130 (L2V natural variant) on HEK293/Stat3-luc/gp130-2X Sort cells (human) (UniProt P40189). Description: FACS, 200 nM antibody on HEK293/gp130 2X Sort cells. For orientation: In flow cytometry, cells or beads pass a laser one at a time.
Experiment [5] has as its target extracellular domain of human LEPR, GPI-anchored, on HEK293/hLEPR-GPI cells (human) (UniProt P48357). The experiment is described as follows: FACS, 200 nM antibody on HEK293/hLEPR-GPI cells, no Leptin.
In experiment [6] the target is gp130 expressed endogenously on IMR-32/STAT3-Luc cells (human) (UniProt P40189). The experiment is described as follows: cell-based or functional assay.
Chain of gp130 expressed endogenously on IMR-32/STAT3-Luc cells (human) (P40189 23-918): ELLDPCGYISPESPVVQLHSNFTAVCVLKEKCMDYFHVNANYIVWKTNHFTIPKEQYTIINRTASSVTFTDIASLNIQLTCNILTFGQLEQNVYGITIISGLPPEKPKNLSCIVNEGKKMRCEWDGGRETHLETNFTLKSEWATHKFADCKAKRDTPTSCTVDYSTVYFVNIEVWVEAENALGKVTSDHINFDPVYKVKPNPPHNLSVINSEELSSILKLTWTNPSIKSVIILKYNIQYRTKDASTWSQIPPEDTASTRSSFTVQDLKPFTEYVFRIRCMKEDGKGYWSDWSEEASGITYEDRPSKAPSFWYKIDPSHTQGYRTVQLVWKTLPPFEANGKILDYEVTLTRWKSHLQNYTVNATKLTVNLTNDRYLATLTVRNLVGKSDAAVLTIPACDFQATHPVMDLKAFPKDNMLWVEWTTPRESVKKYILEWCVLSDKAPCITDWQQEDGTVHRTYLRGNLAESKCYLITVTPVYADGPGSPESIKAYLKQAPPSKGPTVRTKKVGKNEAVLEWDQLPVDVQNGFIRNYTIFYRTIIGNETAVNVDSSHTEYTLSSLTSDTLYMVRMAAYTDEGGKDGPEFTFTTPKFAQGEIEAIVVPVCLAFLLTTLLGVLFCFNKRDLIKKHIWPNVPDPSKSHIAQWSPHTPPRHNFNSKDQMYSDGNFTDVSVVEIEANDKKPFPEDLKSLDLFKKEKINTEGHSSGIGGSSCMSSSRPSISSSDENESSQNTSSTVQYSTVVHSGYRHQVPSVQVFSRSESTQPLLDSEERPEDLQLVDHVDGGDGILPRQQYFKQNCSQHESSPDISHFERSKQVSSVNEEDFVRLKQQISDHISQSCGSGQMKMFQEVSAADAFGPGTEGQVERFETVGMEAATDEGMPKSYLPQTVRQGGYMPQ
Experiment [7] concerns the target extracellular domain of human LEPR, GPI-anchored, on HEK293/hLEPR-GPI cells (human) (UniProt P48357). The experiment is described as follows: FACS, secondary antibody alone on HEK293/hLEPR-GPI cells, 1 µM Leptin.
The target of experiment [8] is full length human GP130 (L2V natural variant) on HEK293/Stat3-luc/gp130-2X Sort cells (human) (UniProt P40189). The experiment is described as follows: FACS, secondary antibody alone on HEK293/gp130 2X Sort cells.
For experiment [9], the target named is extracellular domain of human LEPR, GPI-anchored, on HEK293/hLEPR-GPI cells (human) (UniProt P48357). The experiment is described as follows: FACS, secondary antibody alone on HEK293/hLEPR-GPI cells, no Leptin.

Values joined by “and” are separate entries in the source; they are usually repeats but may differ in a detail not shown here. Equal values may be shown once.

Chain of wild-type human GP130 on HEK293.STAT3.Luc.GP130 reporter cells (human) (P40189 23-918): as above
Chain of extracellular domain of human LEPR, GPI-anchored, on HEK293/hLEPR-GPI cells (human) (P48357 22-839 limits assumed): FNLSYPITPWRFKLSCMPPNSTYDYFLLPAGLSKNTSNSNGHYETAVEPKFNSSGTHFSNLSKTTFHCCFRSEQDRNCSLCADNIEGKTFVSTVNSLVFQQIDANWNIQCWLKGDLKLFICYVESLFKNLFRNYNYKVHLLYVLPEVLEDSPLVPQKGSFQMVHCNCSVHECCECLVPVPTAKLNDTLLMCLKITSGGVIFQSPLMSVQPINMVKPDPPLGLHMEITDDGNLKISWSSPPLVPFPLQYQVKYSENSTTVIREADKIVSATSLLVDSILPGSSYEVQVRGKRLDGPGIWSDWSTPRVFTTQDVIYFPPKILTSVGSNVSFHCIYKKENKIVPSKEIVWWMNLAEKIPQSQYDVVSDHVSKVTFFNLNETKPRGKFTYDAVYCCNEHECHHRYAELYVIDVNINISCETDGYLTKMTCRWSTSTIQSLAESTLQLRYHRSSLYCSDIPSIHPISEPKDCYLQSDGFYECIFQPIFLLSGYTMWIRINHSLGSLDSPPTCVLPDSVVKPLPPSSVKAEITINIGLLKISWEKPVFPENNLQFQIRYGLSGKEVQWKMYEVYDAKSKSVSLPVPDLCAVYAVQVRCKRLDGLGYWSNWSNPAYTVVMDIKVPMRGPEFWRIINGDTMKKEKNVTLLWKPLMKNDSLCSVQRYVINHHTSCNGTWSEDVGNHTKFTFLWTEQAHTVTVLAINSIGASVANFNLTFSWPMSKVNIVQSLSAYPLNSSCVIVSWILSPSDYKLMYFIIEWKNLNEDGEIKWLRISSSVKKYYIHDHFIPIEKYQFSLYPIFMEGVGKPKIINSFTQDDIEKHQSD
Chain of mutant human LEPR (Y1141F) on HEK293.STAT3.Luc.GP130.hLEPR (Y1141F) cells (human) (P48357 22-1165 Y1141F): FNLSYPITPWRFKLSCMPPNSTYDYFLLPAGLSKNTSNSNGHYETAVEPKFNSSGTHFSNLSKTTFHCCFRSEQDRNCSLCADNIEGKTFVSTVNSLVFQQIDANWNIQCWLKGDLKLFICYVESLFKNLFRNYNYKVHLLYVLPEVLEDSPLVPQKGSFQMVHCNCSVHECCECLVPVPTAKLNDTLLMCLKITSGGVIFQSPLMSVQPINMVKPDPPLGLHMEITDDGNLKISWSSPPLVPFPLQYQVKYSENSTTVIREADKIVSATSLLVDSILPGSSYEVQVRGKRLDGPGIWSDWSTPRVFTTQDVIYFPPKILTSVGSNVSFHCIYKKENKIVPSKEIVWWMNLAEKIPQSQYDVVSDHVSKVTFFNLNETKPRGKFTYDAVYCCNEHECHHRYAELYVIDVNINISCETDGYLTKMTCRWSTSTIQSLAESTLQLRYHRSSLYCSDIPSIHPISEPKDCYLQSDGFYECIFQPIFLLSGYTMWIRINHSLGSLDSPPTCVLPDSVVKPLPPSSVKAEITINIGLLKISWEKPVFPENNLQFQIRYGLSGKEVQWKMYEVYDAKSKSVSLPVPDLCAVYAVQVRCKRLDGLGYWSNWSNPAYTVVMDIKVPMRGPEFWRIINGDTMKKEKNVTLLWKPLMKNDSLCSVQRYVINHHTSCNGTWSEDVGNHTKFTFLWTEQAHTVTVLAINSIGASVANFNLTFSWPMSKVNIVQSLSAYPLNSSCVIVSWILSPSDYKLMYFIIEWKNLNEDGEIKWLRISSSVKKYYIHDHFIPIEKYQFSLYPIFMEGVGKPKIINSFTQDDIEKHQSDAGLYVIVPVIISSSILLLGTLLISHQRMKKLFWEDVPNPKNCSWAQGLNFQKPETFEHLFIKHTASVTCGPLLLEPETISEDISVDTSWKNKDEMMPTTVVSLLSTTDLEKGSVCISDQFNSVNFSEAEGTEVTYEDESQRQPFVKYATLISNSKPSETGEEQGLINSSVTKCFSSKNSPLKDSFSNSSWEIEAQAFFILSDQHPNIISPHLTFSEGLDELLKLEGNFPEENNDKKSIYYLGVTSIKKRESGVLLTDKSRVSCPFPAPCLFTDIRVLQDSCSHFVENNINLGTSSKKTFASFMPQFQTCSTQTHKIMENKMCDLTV

As to “human OSM (R&D Systems, #295-OM/CF) (from UniProt P13725 26-221) (ligand)”, in experiment [1], the EC50 (M), STAT3-luciferase activation of HEK293.STAT3.Luc.GP130.hLEPR (Y1141F) cells was 5.92e-10 M; the EC50 (M), STAT3-luciferase activation of HEK293.STAT3.Luc.GP130.hLEPR (a) cells is 1.21e-10 M; the Percentage activation as compared to hOSM worked out at 100%; the Percentage maximum activation as compared to hOSM turned out to be 100%.

For the substance Isotype Control (antibody), the Binding Ratio, normalized to unstained sample (FL4-A) in [2] worked out at 3 fold; in experiment [4], 2 fold; in [5], 3 fold. In addition, the Assay Buffer, % activity in experiment [1] and in experiment [3] was 0% throughout. For the same substance, the RLU, Assay Buffer (no soluble protein) in experiment [1] is 12200 RLU and 12100 RLU; in experiment [3] it was 12200 RLU and 12100 RLU.

“human Oncostatin M (from UniProt P13725 26-221) (ligand)” gave an EC50 of activation of IMR-32/STAT3-luc cells (STAT3-luciferase) in experiment [6] of 0.054 nM.

Consider “Alexa Fluor-647 conjugated secondary antibody (Jackson ImmunoResearch Laboratories Inc., #109-607-003)”, for which the results for the Binding Ratio, normalized to unstained sample (FL4-A) in experiment [7], in experiment [8] and in experiment [9] were 2 fold, 1 fold and 3 fold, respectively.

(Values after patent US20240158497A1.)
